Drawing on paper PMC7949077, this text covers Kd for one substance.

Common to all, as to test: SPR
(In SPR one partner is held on a chip, and binding of the other changes the refractive index at the surface.)

In one series the test system is HuR (ELAVL1). The settings on record: HuR alone; SPR: HBS-EP buffer, Biacore T200 SA chip, 1:1 fit. UV crosslinking/EMSA: 2x RNA-binding buffer listed as 5 mM HEPES, 25 mM KCl, 2 mM MgCl2, 2 mM DTT, 0.1 mM …. (A gel shift assay detects complexes by their altered migration in electrophoresis.)
The next series relates to La (lupus antigen, SSB). The settings on record: SPR: HBS-EP buffer, Biacore T200 SA chip, 1:1 fit. UV crosslinking/EMSA: 2x RNA-binding buffer listed as 5 mM HEPES, 25 mM KCl, 2 mM MgCl2, 2 mM DTT, 0.1 mM ….
Series [1] relates to La (lupus antigen, SSB);HuR (ELAVL1). The settings on record: equimolar La and HuR, same total protein; 1:1 fit; SPR: HBS-EP buffer, Biacore T200 SA chip, 1:1 fit. UV crosslinking/EMSA: 2x RNA-binding buffer listed as 5 mM HEPES, 25 mM KCl, 2 mM MgCl2, 2 mM DTT, 0.1 mM ….

Consider PDCD4 3'UTR full length, for which the Kd (usually the equilibrium constant for the complex coming apart) in the series with HuR (ELAVL1) amounted to 42.7 nM; in the series with La (lupus antigen, SSB) (La alone, first experiment), 27 nM; with La (lupus antigen, SSB) (La alone, second experiment) it was 22 nM; in the series on La (lupus antigen, SSB) (equimolar mix with HuR triple mutant (non-binding), same total protein) it was 27.5 nM; in series [1] it was 10.5 nM.
